{"source": "patent US20210277122A1", "about": "(SHANGHAI HENLIUS BIOTECH, published 2021)", "binders": {"B1": {"name": "chimeric anti-PD-1 antibody c1G4 (antibody, human IgG4 S228P, kappa, V domains shown)", "VH": "EVMLVESGGGLVKPGGSLKLSCAASGFTFSNYGMSWVRQTPEKSLEWVATISGGGSNIYYPDSVKGRFTISRDNAKNNLFLQMSGLRSEDTALYYCVSYYYGIDFWGQGTSVTVSS", "VL": "DIVMTQSHKFMSTSVGDRVSITCKASQDVTTAVAWYQQKPGQSPKLLIYWASTRHTGVPDRFTGSGSGTDYTLTINSVQAEDLALYYCQQHYTIPWTFGGGTKLEIKR", "notes": "also called chimeric c1G4"}, "B2": {"name": "referenced anti-PD-1 antibody (antibody, human IgG4 S228P, kappa, V domains shown)", "VH": "QVQLVESGGGVVQPGRSLRLDCKASGITFSNSGMHWVRQAPGKGLEWVAVIWYDGSKRYYADSVKGRFTISRDNSKNTLFLQMNSLRAEDTAVYYCATNDDYWGQGTLVTVSS", "VL": "EIVLTQSPATLSLSPGERATLSCRASQSVSSYLAWYQQKPGQAPRLLIYDASNRATGIPARFSGSGSGTDFTLTISSLEPEDFAVYYCQQSSNWPRTFGQGTKVEIKR"}, "B3": {"name": "humanized anti-PD-1 antibody 1G4 (h1G4) (antibody, human IgG4 S228P, kappa, V domains shown)", "VH": "QVQLVESGGGLVKPGGSLRLSCAASGFTFSNYGMSWIRQAPGKGLEWVSTISGGGSNIYYADSVKGRFTISRDNAKNSLYLQMNSLRAEDTAVYYCVSYYYGIDFWGQGTSVTVSS", "VL": "DIQMTQSPSSLSASVGDRVTITCKASQDVTTAVAWYQQKPGKAPKLLIYWASTRHTGVPSRFSGSGSGTDFTLTISSLQPEDFATYYCQQHYTIPWTFGGGTKLEIKR", "notes": "CDRs of c1G4 grafted onto IGKV1-39*01 and IGHV3-11*04; also called HLX10; humanized h1G4"}}, "key": {"[1]": {"molecular_target": "T1, PD-1-His (purified recombinant 6xHis-tagged PD-1_ECD) (UniProt Q15116 25-170)", "T1 construct": "extracellular domain", "T1 sequence (Q15116 other isoform, or with tags, fused parts or gaps limits assumed)": "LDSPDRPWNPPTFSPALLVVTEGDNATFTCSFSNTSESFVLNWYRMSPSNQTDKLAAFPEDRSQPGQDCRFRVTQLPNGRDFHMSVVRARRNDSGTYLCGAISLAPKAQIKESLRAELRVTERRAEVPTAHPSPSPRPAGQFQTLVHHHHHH", "test": "SPR, affinity improvement against anti-PD-1 ref"}, "[2]": {"molecular_target": "T1, PD-1-His (purified recombinant …)", "test": "ELISA on PD-1-His, anti-human IgG Fc-HRP, OD450"}, "[3]": {"molecular_target": "T1, PD-1-His (purified recombinant …)", "test": "SPR, full-length IgG, PD-1-His analyte (method of Example 3)"}, "[4]": {"molecular_target": "T1, PD-1-His (purified recombinant …)", "test": "SPR, affinity improvement against the referenced anti-PD-1 antibody"}, "[5]": {"molecular_target": "T1, PD-1-His (purified recombinant …)", "test": "SPR, antibody captured on anti-human IgG Fc, PD-1-His analyte, 25 C, 1:1 Langmuir"}, "[6]": {"molecular_target": "T1, PD-1-His (purified recombinant …)", "test": "blocking ELISA: antibody dilutions mixed with PD-L1-AP, added to PD-1-His coated wells, OD405"}, "[7]": {"molecular_target": "T2, recombinant human PD-1 at the cell surface (PD-1 transfected CHO-S cells) (human, UniProt Q15116 25-288)", "T2 construct": "whole, on cells; Also used as the target in the mixed leukocyte reaction rows, where it is human PD-1 on T cells; also called PD-1 expressing CHO-S cells; PD-1 expressed CHO-S cells", "T2 sequence (Q15116 25-288)": "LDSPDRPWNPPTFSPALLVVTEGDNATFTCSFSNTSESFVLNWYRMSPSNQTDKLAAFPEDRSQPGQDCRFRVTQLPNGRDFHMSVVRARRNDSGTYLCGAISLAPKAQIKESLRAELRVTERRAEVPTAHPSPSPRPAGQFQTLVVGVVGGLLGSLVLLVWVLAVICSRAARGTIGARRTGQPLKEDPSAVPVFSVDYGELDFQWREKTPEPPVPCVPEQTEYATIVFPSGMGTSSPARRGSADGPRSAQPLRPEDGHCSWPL", "test": "blocking flow cytometry: PD-1 expressing CHO-S cells incubated with antibody, washed, then biotin-labeled PD-L1-Fc and streptavidin-PE, MFI"}, "[8]": {"molecular_target": "T1, PD-1-His (purified recombinant …)", "test": "competition ELISA: antibody dilutions pre-mixed with PD-1-His (0.1 µg/ml), then added to a plate coated with the referenced anti-PD-1 (4 µg/ml); anti-His-HRP, OD450"}, "[9]": {"molecular_target": "T1, PD-1-His (purified recombinant …)", "test": "competition ELISA: PD-1-His (0.1 µg/ml) first bound to a plate coated with the referenced anti-PD-1 (4 µg/ml), antibody dilutions added afterwards; anti-His-HRP, OD450"}, "[10]": {"molecular_target": "T3, Human PD-1 (human)", "T3 construct": "PD-1 part of a purchased recombinant PD-1/Fc fusion protein; immobilized at 9 ng per well; also called recombinant human PD-1 fusion protein; PD-1/Fc (Sino Biological Inc.)", "T3 sequence (Q15116 25-170)": "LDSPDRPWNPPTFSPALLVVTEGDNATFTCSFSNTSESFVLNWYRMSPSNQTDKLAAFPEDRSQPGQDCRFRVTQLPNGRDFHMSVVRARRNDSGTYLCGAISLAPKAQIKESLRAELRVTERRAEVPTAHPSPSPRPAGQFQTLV", "test": "ELISA on immobilized human PD-1/Fc (9 ng per well), peroxidase-labeled anti-human IgG F(ab)'2, OD450nm"}, "[11]": {"molecular_target": "T4, Cynomolgus PD-1 (cynomolgus monkey)", "T4 construct": "PD-1 part of a purchased recombinant PD-1/Fc fusion protein; immobilized at 9 ng per well; also called recombinant cynomolgus monkey PD-1 fusion protein; PD-1/Fc (Sino Biological Inc.)", "test": "ELISA on immobilized cynomolgus monkey PD-1/Fc (9 ng per well), peroxidase-labeled anti-human IgG F(ab)'2, OD450nm"}, "[12]": {"molecular_target": "T5, PD-1 on activated human T cells", "T5 construct": "the sheet names no target", "T5 sequence (chain, as listed by the source limits assumed)": "as the sequence (Q15116 25-288) above", "test": "flow cytometry on PHA-activated human T cells, FITC-labeled anti-human IgG Fcγ, MFI"}}}
{"binder": "B1", "values": [{"measurement": "Improvement", "setting": "[1]", "value": 4.07, "unit": "fold"}, {"measurement": "EC50 (read off the curve)", "setting": "[2]", "value": "~0.04", "unit": "mg/L"}, {"measurement": "Kd", "setting": "[3]", "value": 0.325, "unit": "nM"}, {"measurement": "koff", "setting": "[3]", "value": 0.000177, "unit": "s⁻¹"}, {"measurement": "kon", "setting": "[3]", "value": 550000, "unit": "M⁻¹ s⁻¹"}, {"measurement": "Improvement", "setting": "[4]", "value": 9.38, "unit": "fold"}, {"measurement": "Kd", "setting": "[5]", "value": 0.434, "unit": "nM"}, {"measurement": "koff", "setting": "[5]", "value": 0.000104, "unit": "s⁻¹"}, {"measurement": "kon", "setting": "[5]", "value": 244000, "unit": "M⁻¹ s⁻¹"}, {"measurement": "IC50 (read off the curve)", "setting": "[6]", "value": "~0.4", "unit": "mg/L"}, {"measurement": "IC50 (read off the curve)", "setting": "[7]", "value": "~0.6", "unit": "mg/L"}, {"measurement": "IC50 (read off the curve)", "setting": "[8]", "value": "~0.5", "unit": "mg/L"}, {"measurement": "IC50 (read off the curve)", "setting": "[9]", "value": "~0.8", "unit": "mg/L"}]}
{"binder": "B2", "values": [{"measurement": "EC50 (read off the curve)", "setting": "[10]", "value": "~0.02", "unit": "mg/L"}, {"measurement": "EC50 (read off the curve)", "setting": "[11]", "value": "~0.03", "unit": "mg/L"}]}
{"binder": "B3", "values": [{"measurement": "Improvement", "setting": "[1]", "value": 6.66, "unit": "fold"}, {"measurement": "Kd", "setting": "[3]", "value": 0.479, "unit": "nM"}, {"measurement": "koff", "setting": "[3]", "value": 0.000216, "unit": "s⁻¹"}, {"measurement": "kon", "setting": "[3]", "value": 457000, "unit": "M⁻¹ s⁻¹"}, {"measurement": "Improvement", "setting": "[4]", "value": 6.37, "unit": "fold"}, {"measurement": "Kd", "setting": "[5]", "value": 0.265, "unit": "nM"}, {"measurement": "koff", "setting": "[5]", "value": "7.98e-05", "unit": "s⁻¹"}, {"measurement": "kon", "setting": "[5]", "value": 310000, "unit": "M⁻¹ s⁻¹"}, {"measurement": "EC50 (read off the curve)", "setting": "[12]", "value": "~0.1", "unit": "mg/L"}, {"measurement": "EC50 (read off the curve)", "setting": "[10]", "value": "~0.03", "unit": "mg/L"}, {"measurement": "EC50 (read off the curve)", "setting": "[11]", "value": "~0.04", "unit": "mg/L"}]}
